In patent US20110091994A1, “Methods for Screening Compounds for Treating and/or Preventing an Hepatitis C Virus Infection” (priority 2008, published 2011):
Read-outs that look alike come from different tables or passages of the source.

Experiments:
Format in all cases: binding, HCV genotype 1b, isolate con1
[1] = molecular target: T1, GST-tagged viral proteins (Hepatitis C virus genotype 1b, UniProt Q9WMX2); test: Validation by co-affinity purification (CoAP); parameters: key: +: IMAP validation; −: not validated; NA: non assayable due to default of protein expression or to cellular protein directly interacting with GST
T1 construct: expressed in transfected cells; host or cells: HEK-293T
Description: C. Validation of Y2H interactions by co-affinity purification assay. Nine co-AP positive assays are shown, representing: NS5A-SORBS2 (1), NS3-CALCOCO2 (2), NS5A-BIN1 (3), NS5A-MOBK1B (4), NS5A-EFEMP1 (5), NS3-PSMB9 and NS5A-PSMB9 (6), NS5A-PPPIRI3L (7), NS3-RASAL2 (8). After pull-down with GST tagged viral baits (+) or with negative control GST alone (−), cellular preys are identified with anti-Flag antibody. Anti-GST antibody identifies either GST alone or GST-tagged viral baits. Expression of cellular preys in cell lysate is controlled by anti-Flag (bottom panel). […]
A random pool of 59 IMAP Y2H interactions was chosen for CoAP assays. Cellular ORFs (interacting domains found in Y2H screens) were cloned by recombinational cloning from a pool of human cDNA library or the MGC cDNA plasmids using KOD polymerase (Toyobo) into pDONR207 (Invitrogen). After validation by sequencing, these ORFs were transferred to pCi-neo-3xFLAG gateway-converted, and HCV ORFs were transferred into pDEST27 (GST fusion in N-term). HEK-293T cells were then co-transfected (JetPei, Polyplus) by each pair of plasmid encoding interacting proteins. Controls are GST alone against 3xFLAG-tagged preys. Two days after transfection, cells were harvested and lysed (0.5% NP-40, 20 mM Tris-HCl (pH 8.0), 180 mM NaCl, 1 mM EDTA, and complete protease inhibitor cocktail). Cell lysates were cleared by centrifugation for 20 min at 13,000 rpm at 4° C. and soluble protein complexes were purified using Glutathione Sepharose 4B beads (GE Healthcare). Beads were then washed extensively four times with lysis buffer and proteins were separated on SDS-PAGE and transferred to nitrocellulose membrane. GST-tagged viral proteins and 3xFLAG-tagged cellular proteins were detected using standard immunoblotting techniques using anti-GST (Covance) and anti-FLAG M2 (Sigma) monoclonal antibodies (21).

[2] = molecular target: T2, HCV ORFs (Gal4-DB fusions) (Hepatitis C virus genotype 1b, UniProt Q9WMX2); conditions: human protein as prey
T2 construct: expressed in transfected cells; host or cells: Saccharomyces cerevisiae MAV203 (IMAP1) / AH109 (IMAP2)

[3] = test system: HCV ORFs (Gal4-DB fusions); conditions: human protein listed by gene symbol; the value names the HCV protein it interacts with
[4] = interaction with HCV protein NS5A
[5] = validation of interaction with HCV protein NS3
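Wherever IMAP Y2H IMAP2 (number of IST) is given: yeast two-hybrid screens using HCV genotype 1b proteins fused to Gal4-DB as baits against prey cDNA libraries from human spleen and foetal brain, IMAP1 via transformation and IMAP2 via mating.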
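Wherever Interaction with viral protein is given: yeast two-hybrid screens using HCV genotype 1b proteins fused to Gal4-DB as baits against prey cDNA libraries from human spleen and foetal brain, IMAP1 via transformation and IMAP2 via mating.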

Molecule | CoAP [1, 4] | IMAP Y2H IMAP2 (number of IST) ([2]; HCV protein NS5A as bait) | Interaction with viral protein [3] | CoAP [1, 5] | IMAP Y2H IMAP2 (number of IST) ([2]; HCV protein NS3 as bait) | IMAP Y2H IMAP2 (number of IST) ([2]; HCV protein NS5B as bait)
GOLGA2 (protein, UniProt Q08379 1-1002, looked up) Golgin subfamily A member 2: MWPQPRLPPRPAMSEETRQSKLAAAKKKLREYQQRNSPGVPTGAKKKKKIKNGSNPETTTSGGCHSPEDTPKDNAATLQPSDDTVLPGGVPSPGASLTSMAASQNHDADNVPNLMDETKTFSSTESLRQLSQQLNGLVCESATCVNGEGPASSANLKDLESRYQQLAVALDSSYVTNKQLNITIEKLKQQNQEITDQLEEEKKECHQKQGALREQLQVHIQTIGILVSEKAELQTALAHTQHAARQKEGESEDLASRLQYSRRRVGELERALSAVSTQQKKADRYNKELTKERDALRLELYKNTQSNEDLKQEKSELEEKLRVLVTEKAGMQLNLEELQKKLEMTELLLQQFSSRCEAPDANQQLQQAMEERAQLEAHLGQVMESVRQLQMERDKYAENLKGESAMWRQRMQQMSEQVHTLREEKECSMSRVQELETSLAELRNQMAEPPPPEPPAGPSEVEQQLQAEAEHLRKELEGLAGQLQAQVQDNEGLSRLNREQEERLLELERAAELWGEQAEARRQILETMQNDRTTISRALSQNRELKEQLAELQSGFVKLTNENMEITSALQSEQHVKRELGKKLGELQEKLSELKETVELKSQEAQSLQQQRDQYLGHLQQYVAAYQQLTSEKEVLHNQLLLQTQLVDQLQQQEAQGKAVAEMARQELQETQERLEAATQQNQQLRAQLSLMAHPGEGDGLDREEEEDEEEEEEEAVAVPQPMPSIPEDLESREAMVAFFNSAVASAEEEQARLRGQLKEQRVRCRRLAHLLASAQKEPEAAAPAPGTGGDSVCGETHRALQGAMEKLQSRFMELMQEKADLKERVEELEHRCIQLSGETDTIGEYIALYQSQRAVLKERHREKEEYISRLAQDKEEMKVKLLELQELVLRLVGDRNEWHGRFLAAAQNPADEPTSGAPAPQELGAANQQGDLCEVSLAGSVEPAQGEAREGSPRDNPTAQQIMQLLREMQNPRERPGLGSNPCIPFFYRADENDEVKITVI | + | 15 | NS5A |  |  | 
RASAL2 (protein, UniProt Q9UJF2 1-1139, looked up) Ras GTPase-activating protein …: MQTPEVPAERSPRRRSISGTSTSEKPNSMDTANTSPFKVPGFFSKRLKGSIKRTKSQSKLDRNTSFRLPSLRSTDDRSRGLPKLKESRSHESLLSPCSTVECLDLGRGEPVSVKPLHSSILGQDFCFEVTYLSGSKCFSCNSASERDKWMENLRRTVQPNKDNCRRAENVLRLWIIEAKDLAPKKKYFCELCLDDTLFARTTSKTKADNIFWGEHFEFFSLPPLHSITVHIYKDVEKKKKKDKNNYVGLVNIPTASVTGRQFVEKWYPVSTPTPNKGKTGGPSIRIKSRFQTITILPMEQYKEFAEFVTSNYTMLCSVLEPVISVRNKEELACALVHILQSTGRAKDFLTDLVMSEVDRCGEHDVLIFRENTIATKSIEEYLKLVGQQYLHDALGEFIKALYESDENCEVDPSKCSSSELIDHQSNLKMCCELAFCKIINSYCVFPRELKEVFASWKQQCLNRGKQDISERLISASLFLRFLCPAIMSPSLFNLMQEYPDDRTSRTLTLIAKVIQNLANFAKFGNKEEYMAFMNDFLEHEWGGMKRFLLEISNPDTISNTPGFDGYIDLGRELSVLHSLLWEVVSQLDKGENSFLQATVAKLGPLPRVLADITKSLTNPTPIQQQLRRFTEHNSSPNVSGSLSSGLQKIFEDPTDSDLHKLKSPSQDNTDSYFRGKTLLLVQQASSQSMTYSEKDERESSLPNGRSVSLMDLQDTHAAQVEHASVMLDVPIRLTGSQLSITQVASIKQLRETQSTPQSAPQVRRPLHPALNQPGGLQPLSFQNPVYHLNNPIPAMPKASIDSSLENLSTASSRSQSNSEDFKLSGPSNSSMEDFTKRSTQSEDFSRRHTVPDRHIPLALPRQNSTGQAQIRKVDQGGLGARAKAPPSLPHSASLRSTGSMSVVSAALVAEPVQNGSRSRQQSSSSRESPVPKVRAIQRQQTQQVQSPVDSATMSPVERTAAWVLNNGQYEEDVEETEQNLDEAKHAEKYEQEITKLKERLRVSSRRLEEYERRLLVQEQQMQKLLLEYKARLEDSEERLRRQQEEKDSQMKSIISRLMAVEEELKKDHAEMQAVIDAKQKIIDAQEKRIVSLDSANTRLMSALTQVKERYSMQVRNGISPTNPTKLSITENGEFKNSSC |  |  | NS3 | + | 3 | 
CCDC21 (protein, UniProt Q6P2H3 1-762, looked up) Centrosomal protein of 85 kDa: MAMQEKYPTEGISHVTSPSSDVIQKGSSLGTEWQTPVISEPFRSRFSRCSSVADSGDTAIGTSCSDIAEDFCSSSGSPPFQPIKSHVTIPTAHVMPSTLGTSPAKPNSTPVGPSSSKLPLSGLAESVGMTRNGDLGAMKHSPGLSRDLMYFSGATGENGIEQSWFPAVGHERQEEARKFDIPSMESTLNQSAMMETLYSDPHHRVRFHNPRTSTSKELYRVLPEAKKAPGSGAVFERNGPHSNSSGVLPLGLQPAPGLSKPLPSQVWQPSPDTWHPREQSCELSTCRQQLELIRLQMEQMQLQNGAICHHPAAFGPSLPILEPAQWISILNSNEHLLKEKELLIDKQRKHISQLEQKVRESELQVHSALLGRPAPFGDVCLLRLQELQRENTFLRAQFAQKTEALSREKIDLEKKLSASEVEVQLIRESLKVALQKHSEEVKKQEERVKGRDKHINNLKKKCQKESEQNREKQQRIETLERYLADLPTLEDHQKQSQQLKDSELKSTELQEKVTELESLLEETQAICREKEIQLESLRQREAEFSSAGHSLQDKQSVEETSGEGPEVEMESWQKRYDSLQKIVEKQQQKMDQLRSQVQSLEQEVAQEEGTSQALREEAQRRDSALQQLRTAVKELSVQNQDLIEKNLTLQEHLRQAQPGSPPSPDTAQLALELHQELASCLQDLQAVCSIVTQRAQGHDPNLSLLLGIHSAQHPETQLDLQKPDVIKRKLEEVQQLRRDIEDLRTTMSDRYAQDMGENCVTQ |  |  | NS3 | + | 2 | 
GPS2 (protein, UniProt Q13227 1-327, looked up) G protein pathway suppressor 2: MPALLERPKLSNAMARALHRHIMMERERKRQEEEEVDKMMEQKMKEEQERRKKKEMEERMSLEETKEQILKLEEKLLALQEEKHQLFLQLKKVLHEEEKRRRKEQSDLTTLTSAAYQQSLTVHTGTHLLSMQGSPGGHNRPGTLMAADRAKQMFGPQVLTTRHYVGSAAAFAGTPEHGQFQGSPGGAYGTAQPPPHYGPTQPAYSPSQQLRAPSAFPAVQYLSQPQPQPYAVHGHFQPTQTGFLQPGGALSLQKQMEHANQQTGFSDSSSLRPMHPQALHPAPGLLASPQLPVQMQPAGKSGFAATSQPGPRLPFIQHSQNPRFYHK | + | 1 | NS5A |  |  | 
PSMB9 (protein, UniProt P28065 21-219, looked up) Proteasome subunit beta type-9: TTIMAVEFDGGVVMGSDSRVSAGEAVVNRVFDKLSPLHERIYCALSGSAADAQAVADMAAYQLELHGIELEEPPLVLAAANVVRNISYKYREDLSAHLMVAGWDQREGGQVYGTLGGMLTRQPFAIGGSGSTFIYGYVDAAYKPGMSPEECRRFTTDAIALAMSRDGSSGGVIYLVTITAAGVDHRVILGNELPKFYDE | + | 38 | NS3 and NS5A | + | 1 | 14
GBP2 (protein, UniProt P32456 1-588, looked up) Guanylate-binding protein 2: MAPEINLPGPMSLIDNTKGQLVVNPEALKILSAITQPVVVVAIVGLYRTGKSYLMNKLAGKKNGFSLGSTVKSHTKGIWMWCVPHPKKPEHTLVLLDTEGLGDIEKGDNENDSWIFALAILLSSTFVYNSMGTINQQAMDQLHYVTELTDRIKANSSPGNNSVDDSADFVSFFPAFVWTLRDFTLELEVDGEPITADDYLELSLKLRKGTDKKSKSFNDPRLCIRKFFPKRKCFVFDWPAPKKYLAHLEQLKEEELNPDFIEQVAEFCSYILSHSNVKTLSGGIPVNGPRLESLVLTYVNAISSGDLPCMENAVLALAQIENSAAVEKAIAHYEQQMGQKVQLPTETLQELLDLHRDSEREAIEVFMKNSFKDVDQMFQRKLGAQLEARRDDFCKQNSKASSDCCMALLQDIFGPLEEDVKQGTFSKPGGYRLFTQKLQELKNKYYQVPRKGIQAKEVLKKYLESKEDVADALLQTDQSLSEKEKAIEVERIKAESAEAAKKMLEEIQKKNEEMMEQKEKSYQEHVKQLTEKMERDRAQLMAEQEKTLALKLQEQERLLKEGFENESKRLQKDIWDIQMRSKSLEPIC |  |  | NS3 | + | 26 | 
